Test results as given in patent US20240025959A1 (UNIVERSITY OF SOUTHERN CALIFORNIA, published 2024).

How the values were obtained:
[1] = target: T1, Beclin 2 (human, full length) (human, UniProt A8MW95 1-431); test: co-IP with anti-Flag beads and immunoblot; 293T cells co-transfected with HA-Beclin 2 and a Flag-tagged plasmid (FIG. 13C)
T1 construct: All tagged and endogenous human forms are kept under this one id; the form used is named under assay; also called BECN2; Flag-Beclin 2
T1 sequence: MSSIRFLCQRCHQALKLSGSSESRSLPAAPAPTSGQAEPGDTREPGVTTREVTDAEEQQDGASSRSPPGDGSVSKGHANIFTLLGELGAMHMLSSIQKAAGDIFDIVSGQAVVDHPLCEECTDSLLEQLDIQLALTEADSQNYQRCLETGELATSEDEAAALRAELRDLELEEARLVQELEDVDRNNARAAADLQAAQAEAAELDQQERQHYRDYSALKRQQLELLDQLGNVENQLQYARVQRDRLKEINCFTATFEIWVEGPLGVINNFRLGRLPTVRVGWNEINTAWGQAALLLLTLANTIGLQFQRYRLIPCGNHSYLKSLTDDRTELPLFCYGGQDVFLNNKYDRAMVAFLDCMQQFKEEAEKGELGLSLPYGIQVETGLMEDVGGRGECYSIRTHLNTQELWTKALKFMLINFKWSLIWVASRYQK

[2] = target: T1, Beclin 2 (human, full length); test: co-IP with anti-Flag beads and immunoblot; HEK293T cells co-transfected with HA-Beclin 2 and Flag-tagged SNARE or RAB proteins (FIG. 32A)
Protocol: Whole cell lysates obtained 24 h post-transfection or via ligand stimulation were obtained using RIPA lysis buffer and shook on ice for 15 min. The HEK293T cell lysates were immunoprecipitated with anti-Flag conjugated beads (BioLegend) at 4° C. overnight. […] The beads were washed five times with RIPA lysis buffer, and immunoprecipitates were eluted with 2×SDS loading buffer and subjected to SDS-PAGE gel electrophoresis, followed by immunoblotting. The secondary antibody (Veriblot for IP detection, HRP-conjugated) that only recognized native IgG but not denatured IgG was applied for immunoblotting of endogenous proteins in immunoprecipitates.

ULK1 = target: T2, ULK1 (human, UniProt O75385 1-1050); test: co-IP with anti-Flag beads and immunoblot; 293T cells transfected with the indicated Flag-tagged plasmid (FIG. 12B)
T2 construct: also called HA-ULK1
T2 sequence (looked up): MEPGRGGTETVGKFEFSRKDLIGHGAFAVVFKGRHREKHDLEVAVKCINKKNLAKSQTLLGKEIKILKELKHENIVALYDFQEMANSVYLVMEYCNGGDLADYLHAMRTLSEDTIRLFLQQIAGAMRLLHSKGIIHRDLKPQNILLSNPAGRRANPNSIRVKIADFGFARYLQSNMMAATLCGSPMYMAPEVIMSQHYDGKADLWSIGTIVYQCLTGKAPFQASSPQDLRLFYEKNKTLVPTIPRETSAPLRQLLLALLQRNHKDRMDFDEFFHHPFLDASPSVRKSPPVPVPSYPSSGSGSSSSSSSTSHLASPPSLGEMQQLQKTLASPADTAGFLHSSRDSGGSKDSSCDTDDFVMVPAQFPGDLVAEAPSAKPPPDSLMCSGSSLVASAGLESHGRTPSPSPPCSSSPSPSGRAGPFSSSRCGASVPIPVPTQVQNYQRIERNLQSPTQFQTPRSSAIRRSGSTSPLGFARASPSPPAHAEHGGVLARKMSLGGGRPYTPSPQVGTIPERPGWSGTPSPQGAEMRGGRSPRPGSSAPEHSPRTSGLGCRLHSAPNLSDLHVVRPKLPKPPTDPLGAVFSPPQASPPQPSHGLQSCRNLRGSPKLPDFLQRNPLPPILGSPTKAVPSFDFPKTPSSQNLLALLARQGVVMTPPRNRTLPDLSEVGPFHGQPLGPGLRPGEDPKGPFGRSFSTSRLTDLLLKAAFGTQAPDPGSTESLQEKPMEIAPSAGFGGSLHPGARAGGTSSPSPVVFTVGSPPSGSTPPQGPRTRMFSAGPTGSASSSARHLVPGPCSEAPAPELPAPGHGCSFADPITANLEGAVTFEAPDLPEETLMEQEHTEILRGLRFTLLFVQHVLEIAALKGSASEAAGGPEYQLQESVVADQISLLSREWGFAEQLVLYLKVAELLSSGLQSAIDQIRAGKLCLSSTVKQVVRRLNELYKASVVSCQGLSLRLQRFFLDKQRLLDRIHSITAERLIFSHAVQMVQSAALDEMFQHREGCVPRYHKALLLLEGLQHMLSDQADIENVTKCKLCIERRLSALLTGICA
Protocol: Data are representative of at least three independent experiments.
The secondary antibody (Veriblot for IP detection reagent HRP) that only recognized native IgG but not denatured IgG was applied for immunoblotting of proteins in immunoprecipitates. For immunoprecipitation of Flag-tagged proteins, cell lysates were incubated with anti-Flag beads (Sigma) at 4° C. overnight. The beads were washed four times with RIPA lysis buffer, and immunoprecipitates were eluted with 2×SDS loading buffer. Immunoblotting was performed by loading the samples on SDS-PAGE gels, conducting electrophoresis, transferring the samples to PVDF membranes (Bio-Rad), and then incubating the membranes with the indicated antibodies. For all immunoblots, the LumiGLO Chemiluminescent Substrate System from KPL (Gaithersburg, MD) was used for protein detection.

[3] = target: T3, AIM2 (human, full length) (human, UniProt O14862 1-343); test: co-IP with anti-Flag beads; HA-tagged Beclin 2 truncations co-transfected with Flag-AIM2 (FIG. 25K)
T3 construct: also called Flag-AIM2; GFP-AIM2
T3 sequence (looked up): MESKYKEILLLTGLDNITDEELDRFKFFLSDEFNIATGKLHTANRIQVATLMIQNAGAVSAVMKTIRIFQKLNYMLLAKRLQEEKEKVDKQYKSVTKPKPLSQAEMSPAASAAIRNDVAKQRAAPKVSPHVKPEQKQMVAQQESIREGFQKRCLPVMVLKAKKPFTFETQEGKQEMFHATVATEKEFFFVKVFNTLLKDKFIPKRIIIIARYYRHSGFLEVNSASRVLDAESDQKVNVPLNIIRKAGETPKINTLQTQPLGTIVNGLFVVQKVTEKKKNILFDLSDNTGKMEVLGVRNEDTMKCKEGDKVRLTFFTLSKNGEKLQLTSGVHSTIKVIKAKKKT
Protocol: (§1) Cell lysates were immunoprecipitated with anti-Flag beads and immunoblotted using indicated antibodies. […] Cell lysates were immunoprecipitated with anti-Flag beads and immunoblotted using indicated antibodies.
(§2) Whole cell lysates obtained 24 h post-transfection or via ligand stimulation were obtained using RIPA lysis buffer and shook on ice for 15 min. The HEK293T cell lysates were immunoprecipitated with anti-Flag conjugated beads (BioLegend) at 4° C. overnight.

[4] = target: T4, NLRP3 (human, full length) (human, UniProt Q96P20 1-1036, limits assumed); test: co-IP with anti-Flag beads; HA-tagged Beclin 2 truncations co-transfected with Flag-NLRP3 (FIG. 25L)
T4 construct: also called Flag-NLRP3; HA-NLRP3
T4 sequence (Q96P20 whole entry, the tested form may be a part): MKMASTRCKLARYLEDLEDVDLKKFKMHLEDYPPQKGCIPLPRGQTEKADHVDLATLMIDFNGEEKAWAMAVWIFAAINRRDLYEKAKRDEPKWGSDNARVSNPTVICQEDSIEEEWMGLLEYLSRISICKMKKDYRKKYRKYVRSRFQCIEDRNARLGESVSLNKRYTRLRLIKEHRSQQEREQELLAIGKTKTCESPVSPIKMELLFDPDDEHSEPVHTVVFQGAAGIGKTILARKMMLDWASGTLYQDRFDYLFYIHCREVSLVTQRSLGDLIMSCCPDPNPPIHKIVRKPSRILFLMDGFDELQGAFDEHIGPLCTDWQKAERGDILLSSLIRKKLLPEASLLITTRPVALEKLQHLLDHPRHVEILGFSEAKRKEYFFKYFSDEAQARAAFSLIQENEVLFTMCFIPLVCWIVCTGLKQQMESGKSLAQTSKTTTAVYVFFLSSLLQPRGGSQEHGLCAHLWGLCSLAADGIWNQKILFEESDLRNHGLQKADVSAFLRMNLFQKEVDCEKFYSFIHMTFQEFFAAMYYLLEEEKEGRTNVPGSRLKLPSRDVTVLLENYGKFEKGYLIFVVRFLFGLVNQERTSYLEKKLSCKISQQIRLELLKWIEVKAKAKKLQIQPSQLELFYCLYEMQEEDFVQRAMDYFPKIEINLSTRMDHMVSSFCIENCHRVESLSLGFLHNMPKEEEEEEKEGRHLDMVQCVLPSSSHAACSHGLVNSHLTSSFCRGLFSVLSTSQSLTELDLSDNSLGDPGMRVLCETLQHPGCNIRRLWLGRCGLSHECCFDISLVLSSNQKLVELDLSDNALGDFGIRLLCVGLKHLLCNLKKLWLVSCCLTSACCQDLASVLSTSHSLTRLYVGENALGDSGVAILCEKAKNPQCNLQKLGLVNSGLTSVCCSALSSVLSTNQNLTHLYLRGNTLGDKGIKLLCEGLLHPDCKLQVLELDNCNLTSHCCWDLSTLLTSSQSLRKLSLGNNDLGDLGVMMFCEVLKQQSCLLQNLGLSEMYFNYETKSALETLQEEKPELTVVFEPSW
Protocol: as §1, §2

B1: STX8 (other, human, UniProt Q9UNK0 1-236, looked up)
chain: MAPDPWFSTYDSTCQIAQEIAEKIQQRNQYERKGEKAPKLTVTIRALLQNLKEKIALLKDLLLRAVSTHQITQLEGDRRQNLLDDLVTRERLLLASFKNEGAEPDLIRSSLMSEEAKRGAPNPWLFEEPEETRGLGFDEIRQQQQKIIQEQDAGLDALSSIISRQKQMGQEIGNELDEQNEIIDDLANLVENTDEKLRNETRRVNMVDRKSASCGMIMVILLLLVAIVVVAVWPTN
- binding result [1]: binds

B2: VAMP7 (other, human, UniProt P51809 1-220, looked up)
chain: MAILFAVVARGTTILAKHAWCGGNFLEVTEQILAKIPSENNKLTYSHGNYLFHYICQDRIVYLCITDDDFERSRAFNFLNEIKKRFQTTYGSRAQTALPYAMNSEFSSVLAAQLKHHSENKGLDKVMETQAQVDELKGIMVRNIDLVAQRGERLELLIDKTENLVDSSVTFKTTSRNLARAMCMKNLKLTIIIIIVSIVFIYIIVSPLCGGFTWPSCVKK
- binding result [2]: binds

B3: ATG9A (human) (other, UniProt Q7Z3C6 1-839, looked up)
chain: MAQFDTEYQRLEASYSDSPPGEEDLLVHVAEGSKSPWHHIENLDLFFSRVYNLHQKNGFTCMLIGEIFELMQFLFVVAFTTFLVSCVDYDILFANKMVNHSLHPTEPVKVTLPDAFLPAQVCSARIQENGSLITILVIAGVFWIHRLIKFIYNICCYWEIHSFYLHALRIPMSALPYCTWQEVQARIVQTQKEHQICIHKRELTELDIYHRILRFQNYMVALVNKSLLPLRFRLPGLGEAVFFTRGLKYNFELILFWGPGSLFLNEWSLKAEYKRGGQRLELAQRLSNRILWIGIANFLLCPLILIWQILYAFFSYAEVLKREPGALGARCWSLYGRCYLRHFNELEHELQSRLNRGYKPASKYMNCFLSPLLTLLAKNGAFFAGSILAVLIALTIYDEDVLAVEHVLTTVTLLGVTVTVCRSFIPDQHMVFCPEQLLRVILAHIHYMPDHWQGNAHRSQTRDEFAQLFQYKAVFILEELLSPIVTPLILIFCLRPRALEIIDFFRNFTVEVVGVGDTCSFAQMDVRQHGHPQWLSAGQTEASVYQQAEDGKTELSLMHFAITNPGWQPPRESTAFLGFLKEQVQRDGAAASLAQGGLLPENALFTSIQSLQSESEPLSLIANVVAGSSCRGPPLPRDLQGSRHRAEVASALRSFSPLQPGQAPTGRAHSTMTGSGVDARTASSGSSVWEGQLQSLVLSEYASTEMSLHALYMHQLHKQQAQAEPERHVWHRRESDESGESAPDEGGEGARAPQSIPRSASYPCAAPRPGAPETTALHGGFQRRYGGITDPGTVPRVPSHFSRLPLGGWAEDGQSASRHPEPVPEEGSEDELPPQVHKV
notes: Transmembrane protein; co-IP from RIPA lysates; Tagged and endogenous human forms kept under one id; also called Flag-ATG9A; HA-ATG9A
- binding result (ULK1): binds

B4: Beclin 2/ECD (ECD domain alone) (other)
chain: INCFTATFEIWVEGPLGVINNFRLGRLPTVRVGWNEINTAWGQAALLLLTLANTIGLQFQRYRLIPCGNHSYLKSLTDDRTELPLFCYGGQDVFLNNKYDRAMVAFLDCMQQFKEEAEKGELGLSLPYGIQVETGLMEDVGGRGECYSIRTHLNTQELWTKALKFMLINFKWSLIWVASRYQK
notes: HA-tagged truncation
- binding result [3]: no binding
- binding result [4]: no binding

B5: VAMP8 (other, human, UniProt Q9BV40 1-100, looked up)
chain: MEEASEGGGNDRVRNLQSEVEGVKNIMTQNVERILARGENLEHLRNKTEDLEATSEHFKTTSQKVARKFWWKNVKMIVLICVIVFIIILFIVLFATGAFS
- binding result [1]: binds

B6: Beclin 2/ΔECD (ECD domain deletion fragment, residues 1-248) (other)
chain: MSSIRFLCQRCHQALKLSGSSESRSLPAAPAPTSGQAEPGDTREPGVTTREVTDAEEQQDGASSRSPPGDGSVSKGHANIFTLLGELGAMHMLSSIQKAAGDIFDIVSGQAVVDHPLCEECTDSLLEQLDIQLALTEADSQNYQRCLETGELATSEDEAAALRAELRDLELEEARLVQELEDVDRNNARAAADLQAAQAEAAELDQQERQHYRDYSALKRQQLELLDQLGNVENQLQYARVQRDRLKE
notes: HA-tagged truncation; also called Beclin 2/AECD
- binding result [3]: no binding
- binding result [4]: no binding

B7: STX7 (other, human, UniProt O15400 1-261, looked up)
chain: MSYTPGVGGDPAQLAQRISSNIQKITQCSVEIQRTLNQLGTPQDSPELRQQLQQKQQYTNQLAKETDKYIKEFGSLPTTPSEQRQRKIQKDRLVAEFTTSLTNFQKVQRQAAEREKEFVARVRASSRVSGSFPEDSSKERNLVSWESQTQPQVQVQDEEITEDDLRLIHERESSIRQLEADIMDINEIFKDLGMMIHEQGDVIDSIEANVENAEVHVQQANQQLSRAADYQRKSRKTLCIIILILVIGVAIISLIIWGLNH
- binding result [1]: binds

B8: RAB8A (other, human, UniProt P61006 1-207, looked up)
chain: MAKTYDYLFKLLLIGDSGVGKTCVLFRFSEDAFNSTFISTIGIDFKIRTIELDGKRIKLQIWDTAGQERFRTITTAYYRGAMGIMLVYDITNEKSFDNIRNWIRNIEEHASADVEKMILGNKCDVNDKRQVSKERGEKLALDYGIKFMETSAKANINVENAFFTLARDIKAKMDKKLEGNSPQGSNQGVKITPDQQKRSSFFRCVLL
- binding result [1]: binds

B9: STX6 (other, human, UniProt O43752 1-255, looked up)
chain: MSMEDPFFVVKGEVQKAVNTAQGLFQRWTELLQDPSTATREEIDWTTNELRNNLRSIEWDLEDLDETISIVEANPRKFNLDATELSIRKAFITSTRQVVRDMKDQMSTSSVQALAERKNRQALLGDSGSQNWSTGTTDKYGRLDRELQRANSHFIEEQQAQQQLIVEQQDEQLELVSGSIGVLKNMSQRIGGELEEQAVMLEDFSHELESTQSRLDNVMKKLAKVSHMTSDRRQWCAIAILFAVLLVVLILFLVL
notes: also called syntaxin 6
- binding result [1]: binds
